Results as given in US7923016.

target: CXC chemokine receptor 4 (CXCR4) on THP-1 cells (UniProt P61073); assay: cell-based or functional assay
Sequence (P61073 whole entry): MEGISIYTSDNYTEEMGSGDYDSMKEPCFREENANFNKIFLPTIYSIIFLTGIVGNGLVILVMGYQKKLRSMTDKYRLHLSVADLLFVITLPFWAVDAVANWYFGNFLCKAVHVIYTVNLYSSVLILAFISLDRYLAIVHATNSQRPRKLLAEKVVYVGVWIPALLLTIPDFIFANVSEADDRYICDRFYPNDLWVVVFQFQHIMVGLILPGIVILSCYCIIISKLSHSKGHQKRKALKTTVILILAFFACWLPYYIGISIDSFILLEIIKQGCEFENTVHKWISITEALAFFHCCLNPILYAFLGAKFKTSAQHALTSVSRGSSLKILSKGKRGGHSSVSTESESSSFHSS

Substance	EC50 (nM), CXCR4 activation, Ca2+-flux in THP-1 cells	Fold Increase of EC50 over wild-type CXCL12-α
CXCL12-α E63A (from UniProt P48061 22-93) (ligand)	3.7 nM	1 fold
CXCL12-α K27E (from UniProt P48061 22-93) (ligand)	16.8 nM	4.7 fold
CXCL12-α R20A (from UniProt P48061 22-93) (ligand)	4.3 nM	1.2 fold
CXCL12-α V49A (from UniProt P48061 22-93) (ligand)	8.6 nM	2.4 fold
CXCL12-α K64A (from UniProt P48061 22-93) (ligand)	5 nM	1.4 fold
CXCL12-α E60A (from UniProt P48061 22-93) (ligand)	4.1 nM	1.1 fold

Results, then the substance that gave them:

EC50 (nM), CXCR4 activation, Ca2+-flux in THP-1 cells	Fold Increase of EC50 over wild-type CXCL12-α	Substance
4.3 nM	1.2 fold	CXCL12-α R41A (from UniProt P48061 22-93) (ligand)
27.1 nM	7.5 fold	CXCL12-α V39A (from UniProt P48061 22-93) (ligand)
10.1 nM	2.8 fold	CXCL12-α K27A (from UniProt P48061 22-93) (ligand)
654 nM	182 fold	CXCL12-α R47E (from UniProt P48061 22-93) (ligand)
14.1 nM	3.9 fold	CXCL12-α R47A (from UniProt P48061 22-93) (ligand)
5.1 nM	1.4 fold	CXCL12-α H25R (from UniProt P48061 22-93) (ligand)

target: wild-type CXCL12-α (UniProt P48061); assay: apparent Kd; method not given

Kd	Substance
200 nM	p38-sY3 (CXCR4 N-terminal peptide p38 with sulfotyrosine at positions 7, 12 and 21)

target: wild-type CXCL12-α (UniProt P48061); assay: method not given; reference is unsulfated p38

fold tighter binding than the unsulfated peptide (p38)	Substance
20 fold	p38-sY3 (CXCR4 N-terminal peptide p38 with sulfotyrosine at positions 7, 12 and 21)
